Data on 85 variants can be found in paper PMC13397619.

The labels stand for the following.
B1: NLV3 TCR beta chain (CDR3β only) (parent)
chain: ASSPTGGSPSPLH
partner: NLCPMVATV

Variants of B1 are the subject of the first assay. The assay can be described thus: T-Switch: Jurkat TCRβ−/− cells expressing a CDR3 saturation-mutagenesis library, stained with two peptide-HLA-A*02:01 tetramers (original and novel peptide) plus anti-CD3, FACS-sorted into four gates, gDNA sequenced. Conditions: with HLA-A*02:01 with peptide … (NLV 2-1, the novel peptide), tetramers 1 µg/mL, 30 min on ice, SP, DP and SW gates expanded about 10 days between rounds ('two to three rounds of selection' in the Methods), gate SW: higher = more of the variant in the gate that binds the novel peptide and not the original one = switched binding. Fold enrichment of the CDR3 variant in one FACS gate of a two-tetramer stain, unresolved parent, parent is a CDR3 fragment, scale: fold enrichment, numbering: sequential-on-construct, sequence starts at 1.
For […] (CDR3 as printed); G6K derived by comparing it with the table's wild-type CDR3 ASSPTGGSPSPLH, the enrichment is 0.

On to […] (CDR3 as printed); S8F derived by comparing it with the table's wild-type CDR3 ASSPTGGSPSPLH, for which the enrichment is 0.

On to […] (CDR3 as printed); S8L derived by comparing it with the table's wild-type CDR3 ASSPTGGSPSPLH, for which the enrichment came out at 0.

As to […] (CDR3 as printed); A1I derived by comparing it with the table's wild-type CDR3 ASSPTGGSPSPLH, the enrichment was found to be 0.

Turning to […] (CDR3 as printed); P9K derived by comparing it with the table's wild-type CDR3 ASSPTGGSPSPLH, the enrichment stood at 0.

In the case of […] (CDR3 as printed); S10L derived by comparing it with the table's wild-type CDR3 ASSPTGGSPSPLH, the enrichment came out at 0.

Take […] (CDR3 as printed); S2Q derived by comparing it with the table's wild-type CDR3 ASSPTGGSPSPLH: the enrichment came out at 0.

Turning to […] (CDR3 as printed); L12G derived by comparing it with the table's wild-type CDR3 ASSPTGGSPSPLH, the enrichment came out at 0.

[…] (CDR3 as printed); S2I derived by comparing it with the table's wild-type CDR3 ASSPTGGSPSPLH: the enrichment is 0.

For the variant […] (CDR3 as printed); S2F derived by comparing it with the table's wild-type CDR3 ASSPTGGSPSPLH, the enrichment came out at 0.

As to […] (CDR3 as printed); L12E derived by comparing it with the table's wild-type CDR3 ASSPTGGSPSPLH, the enrichment stood at 0.

Consider […] (CDR3 as printed); G7I derived by comparing it with the table's wild-type CDR3 ASSPTGGSPSPLH, for which the enrichment came out at 0.

In the case of […] (CDR3 as printed); G6Y derived by comparing it with the table's wild-type CDR3 ASSPTGGSPSPLH, the enrichment is 0.

For the variant […] (CDR3 as printed); P4C derived by comparing it with the table's wild-type CDR3 ASSPTGGSPSPLH, the enrichment amounted to 0.

For […] (CDR3 as printed); L12S derived by comparing it with the table's wild-type CDR3 ASSPTGGSPSPLH, the enrichment came out at 0.

Turning to […] (CDR3 as printed); S10T derived by comparing it with the table's wild-type CDR3 ASSPTGGSPSPLH, the enrichment was found to be 0.

With […] (CDR3 as printed); S10R derived by comparing it with the table's wild-type CDR3 ASSPTGGSPSPLH, the enrichment is 0.

Consider […] (CDR3 as printed); H13F derived by comparing it with the table's wild-type CDR3 ASSPTGGSPSPLH, for which the enrichment came to 0.

In the case of […] (CDR3 as printed); A1G derived by comparing it with the table's wild-type CDR3 ASSPTGGSPSPLH, the enrichment came to 0.

For the variant […] (CDR3 as printed); A1N derived by comparing it with the table's wild-type CDR3 ASSPTGGSPSPLH, the enrichment stood at 0.

With […] (CDR3 as printed); G6T derived by comparing it with the table's wild-type CDR3 ASSPTGGSPSPLH, the enrichment turned out to be 0.

Turning to […] (CDR3 as printed); H13K derived by comparing it with the table's wild-type CDR3 ASSPTGGSPSPLH, the enrichment was found to be 0.

Regarding […] (CDR3 as printed); G6N derived by comparing it with the table's wild-type CDR3 ASSPTGGSPSPLH, the enrichment is 0.

With […] (CDR3 as printed); L12I derived by comparing it with the table's wild-type CDR3 ASSPTGGSPSPLH, the enrichment is 0.

Take […] (CDR3 as printed); L12Y derived by comparing it with the table's wild-type CDR3 ASSPTGGSPSPLH: the enrichment turned out to be 0.

Regarding […] (CDR3 as printed); G7C derived by comparing it with the table's wild-type CDR3 ASSPTGGSPSPLH, the enrichment is 0.

With […] (CDR3 as printed); H13D derived by comparing it with the table's wild-type CDR3 ASSPTGGSPSPLH, the enrichment came out at 0.

In the case of […] (CDR3 as printed); L12R derived by comparing it with the table's wild-type CDR3 ASSPTGGSPSPLH, the enrichment amounted to 0.

On to […] (CDR3 as printed); G7N derived by comparing it with the table's wild-type CDR3 ASSPTGGSPSPLH, for which the enrichment was found to be 0.

As for […] (CDR3 as printed); T5V derived by comparing it with the table's wild-type CDR3 ASSPTGGSPSPLH, the enrichment turned out to be 0.

As to […] (CDR3 as printed); A1M derived by comparing it with the table's wild-type CDR3 ASSPTGGSPSPLH, the enrichment is 0.

For the variant […] (CDR3 as printed); S2N derived by comparing it with the table's wild-type CDR3 ASSPTGGSPSPLH, the enrichment was determined as 0.

For the variant […] (CDR3 as printed); S10D derived by comparing it with the table's wild-type CDR3 ASSPTGGSPSPLH, the enrichment turned out to be 0.

Turning to […] (CDR3 as printed); G6P derived by comparing it with the table's wild-type CDR3 ASSPTGGSPSPLH, the enrichment was 0.

As for […] (CDR3 as printed); T5R derived by comparing it with the table's wild-type CDR3 ASSPTGGSPSPLH, the enrichment was 0.

Turning to […] (CDR3 as printed); G7A derived by comparing it with the table's wild-type CDR3 ASSPTGGSPSPLH, the enrichment stood at 0.

For the variant […] (CDR3 as printed); P11H derived by comparing it with the table's wild-type CDR3 ASSPTGGSPSPLH, the enrichment is 0.

Regarding […] (CDR3 as printed); S8W derived by comparing it with the table's wild-type CDR3 ASSPTGGSPSPLH, the enrichment was determined as 0.

Turning to […] (CDR3 as printed); P11G derived by comparing it with the table's wild-type CDR3 ASSPTGGSPSPLH, the enrichment worked out at 0.

[…] (CDR3 as printed); P4E derived by comparing it with the table's wild-type CDR3 ASSPTGGSPSPLH: the enrichment was determined as 0.

For the variant […] (CDR3 as printed); S3R derived by comparing it with the table's wild-type CDR3 ASSPTGGSPSPLH, the enrichment was found to be 0.

In the case of […] (CDR3 as printed); P11N derived by comparing it with the table's wild-type CDR3 ASSPTGGSPSPLH, the enrichment turned out to be 0.

On to […] (CDR3 as printed); S2R derived by comparing it with the table's wild-type CDR3 ASSPTGGSPSPLH, for which the enrichment was determined as 0.

On to […] (CDR3 as printed); P4W derived by comparing it with the table's wild-type CDR3 ASSPTGGSPSPLH, for which the enrichment was found to be 0.

With […] (CDR3 as printed); A1Y derived by comparing it with the table's wild-type CDR3 ASSPTGGSPSPLH, the enrichment was 0.

With […] (CDR3 as printed); S10P derived by comparing it with the table's wild-type CDR3 ASSPTGGSPSPLH, the enrichment stood at 0.

Consider […] (CDR3 as printed); H13G derived by comparing it with the table's wild-type CDR3 ASSPTGGSPSPLH, for which the enrichment amounted to 0.

Regarding […] (CDR3 as printed); H13A derived by comparing it with the table's wild-type CDR3 ASSPTGGSPSPLH, the enrichment was determined as 0.

Regarding […] (CDR3 as printed); P9C derived by comparing it with the table's wild-type CDR3 ASSPTGGSPSPLH, the enrichment is 0.

Turning to […] (CDR3 as printed); S2A derived by comparing it with the table's wild-type CDR3 ASSPTGGSPSPLH, the enrichment was 0.

On to […] (CDR3 as printed); P11Y derived by comparing it with the table's wild-type CDR3 ASSPTGGSPSPLH, for which the enrichment was 0.

Consider […] (CDR3 as printed); G7Q derived by comparing it with the table's wild-type CDR3 ASSPTGGSPSPLH, for which the enrichment amounted to 0.

With […] (CDR3 as printed); P9M derived by comparing it with the table's wild-type CDR3 ASSPTGGSPSPLH, the enrichment came out at 0.

In the case of […] (CDR3 as printed); P9I derived by comparing it with the table's wild-type CDR3 ASSPTGGSPSPLH, the enrichment was determined as 0.

In the case of […] (CDR3 as printed); G7H derived by comparing it with the table's wild-type CDR3 ASSPTGGSPSPLH, the enrichment worked out at 0.

As for […] (CDR3 as printed); G7L derived by comparing it with the table's wild-type CDR3 ASSPTGGSPSPLH, the enrichment is 0.

On to […] (CDR3 as printed); S10M derived by comparing it with the table's wild-type CDR3 ASSPTGGSPSPLH, for which the enrichment is 0.

With […] (CDR3 as printed); S3A derived by comparing it with the table's wild-type CDR3 ASSPTGGSPSPLH, the enrichment was 0.

Consider […] (CDR3 as printed); S10I derived by comparing it with the table's wild-type CDR3 ASSPTGGSPSPLH, for which the enrichment was 0.

[…] (CDR3 as printed); T5D derived by comparing it with the table's wild-type CDR3 ASSPTGGSPSPLH: the enrichment came out at 0.

Regarding […] (CDR3 as printed); T5P derived by comparing it with the table's wild-type CDR3 ASSPTGGSPSPLH, the enrichment turned out to be 0.

As for […] (CDR3 as printed); A1W derived by comparing it with the table's wild-type CDR3 ASSPTGGSPSPLH, the enrichment amounted to 0.

[…] (CDR3 as printed); T5L derived by comparing it with the table's wild-type CDR3 ASSPTGGSPSPLH: the enrichment is 0.

[…] (CDR3 as printed); S8R derived by comparing it with the table's wild-type CDR3 ASSPTGGSPSPLH: the enrichment came to 0.

As to […] (CDR3 as printed); L12K derived by comparing it with the table's wild-type CDR3 ASSPTGGSPSPLH, the enrichment was determined as 0.

For […] (CDR3 as printed); T5M derived by comparing it with the table's wild-type CDR3 ASSPTGGSPSPLH, the enrichment came to 0.

In the case of […] (CDR3 as printed); P9G derived by comparing it with the table's wild-type CDR3 ASSPTGGSPSPLH, the enrichment stood at 0.

As to […] (CDR3 as printed); H13T derived by comparing it with the table's wild-type CDR3 ASSPTGGSPSPLH, the enrichment came out at 0.

For the variant […] (CDR3 as printed); S8K derived by comparing it with the table's wild-type CDR3 ASSPTGGSPSPLH, the enrichment was 0.

Regarding […] (CDR3 as printed); P4Q derived by comparing it with the table's wild-type CDR3 ASSPTGGSPSPLH, the enrichment worked out at 0.

As to […] (CDR3 as printed); A1T derived by comparing it with the table's wild-type CDR3 ASSPTGGSPSPLH, the enrichment amounted to 0.

[…] (CDR3 as printed); G6E derived by comparing it with the table's wild-type CDR3 ASSPTGGSPSPLH: the enrichment worked out at 0.

On to […] (CDR3 as printed); P11Q derived by comparing it with the table's wild-type CDR3 ASSPTGGSPSPLH, for which the enrichment came out at 0.

Take […] (CDR3 as printed); H13Y derived by comparing it with the table's wild-type CDR3 ASSPTGGSPSPLH: the enrichment is 0.

On to […] (CDR3 as printed); S3Q derived by comparing it with the table's wild-type CDR3 ASSPTGGSPSPLH, for which the enrichment stood at 0.

Take […] (CDR3 as printed); P4R derived by comparing it with the table's wild-type CDR3 ASSPTGGSPSPLH: the enrichment was 0.

Regarding […] (CDR3 as printed); A1K derived by comparing it with the table's wild-type CDR3 ASSPTGGSPSPLH, the enrichment stood at 0.

Take […] (CDR3 as printed); G6R derived by comparing it with the table's wild-type CDR3 ASSPTGGSPSPLH: the enrichment was found to be 0.

For […] (CDR3 as printed); A1D derived by comparing it with the table's wild-type CDR3 ASSPTGGSPSPLH, the enrichment worked out at 0.

As for […] (CDR3 as printed); G7S derived by comparing it with the table's wild-type CDR3 ASSPTGGSPSPLH, the enrichment was 0.

As for […] (CDR3 as printed); H13C derived by comparing it with the table's wild-type CDR3 ASSPTGGSPSPLH, the enrichment is 0.

As for […] (CDR3 as printed); S8Y derived by comparing it with the table's wild-type CDR3 ASSPTGGSPSPLH, the enrichment worked out at 0.

As for […] (CDR3 as printed); S8H derived by comparing it with the table's wild-type CDR3 ASSPTGGSPSPLH, the enrichment was found to be 0.

As to […] (CDR3 as printed); P4N derived by comparing it with the table's wild-type CDR3 ASSPTGGSPSPLH, the enrichment turned out to be 0.

The same assay, now with this note: with HLA-A*02:01 with peptide … (NLV 2-1, the novel peptide), tetramers 1 µg/mL, 30 min on ice, SP, DP and SW gates expanded about 10 days between rounds ('two to three rounds of selection' in the Methods), gate SW: higher = more of the variant in the gate that binds the novel peptide and not the original one = switched binding. Fold enrichment of the CDR3 variant in one FACS gate of a two-tetramer stain, unresolved parent, parent is a CDR3 fragment, zero in all gates, scale: fold enrichment, numbering: sequential-on-construct, ….
[…] (CDR3 as printed); S2L derived by comparing it with the table's wild-type CDR3 ASSPTGGSPSPLH: the enrichment was 0.
